Assay results taken from article PMC8798132.

Molecular target: HLA-DPB1 (from the recombinant plasmid pEGFP-N2-HLA-DPB1, expressed in 293T cells) (human) (UniProt P04440)
Test: flow cytometry on cells

UniProt P04440, sequence (P04440 30-225): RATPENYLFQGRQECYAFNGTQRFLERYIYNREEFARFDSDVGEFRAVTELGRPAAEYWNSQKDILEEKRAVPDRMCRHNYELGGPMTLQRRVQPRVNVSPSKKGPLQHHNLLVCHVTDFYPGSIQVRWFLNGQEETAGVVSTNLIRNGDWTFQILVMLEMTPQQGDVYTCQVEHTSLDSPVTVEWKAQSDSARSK

Work on “gp42/gHgL complex protein (from UniProt P03205 33-223; P03231 19-706; P03212 23-137)” yielded an HLA-DP+ gp42+ cells (%) at 20 ug gp42 protein of 12.4%, an HLA-DP+ gp42+ cells (%) at 40 ug gp42 protein of 18.4% and an HLA-DP+ gp42+ cells (%) at 80 ug gp42 protein of 27.1%. For the same substance, the HLA-DPB1+ gp42+ cells (%), HLA-DPB1 recombinant plasmid group was 28.9%, the gp42+ cells (%) at 20 ug gp42 protein was 14% and the gp42+ cells (%) at 40 ug gp42 protein was 20.1%. The gp42+ cells (%) at 80 ug gp42 protein was 29.3% and the gp42+ cells (%), HLA-DPB1 recombinant plasmid group was 28.6%.
